The values that follow come from paper PMC4873810.

The target of this assay is mouse embryonic heparan sulfate (HS) coupled to HiTrap column. The assay is described as follows: HS affinity chromatography (FPLC). As to conditions: 0-1.5 M NaCl gradient from fraction 5 to 14, parent: est. 100, read off a plot.
[1] abbreviates: value is the height of the salt-eluted peak at fraction 12.

As to “Scube2 (signal peptide, CUB domain, epidermal growth factor (EGF)-like protein 2), full-length, FLAG-tagged (from UniProt Q9NQ36) K608E; R609E; K612E; R613E; R615E; K616E; R619E; R622E; K623E; H626E; R627E”, the response under setting [1] turned out to be 4%. Same read-out and setting: as for “Scube2 (signal peptide, CUB domain, epidermal growth factor (EGF)-like protein 2), full-length, FLAG-tagged (from UniProt Q9NQ36) K608A; R609A; K612A; R613A; R615A; K616A; R619A; R622A; K623A; H626A; R627A; K643A; K644A; R647A”, the figure is 11%.

Regarding “Spacer (isolated Scube2 spacer domain) K608A; R609A; K612A; R613A; R615A; K616A; R619A; R622A; K623A; H626A; R627A; K643A; K644A; R647A”, the response (value is the height of the salt-eluted peak at about fraction 12) was determined as 5%.
